From the NTF2 design screens of Basanta et al. (2020)

Experiment: protease stability score; higher = more stable; yeast display proteolysis, trypsin and chymotrypsin;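 note: log10 excess protease needed over predicted unfolded state with 0 meaning unfolded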

Going from “DESEMQKAVEDIVKMLETGNETKFQENAPPDVRVDVGDKRFTGREDLRKWVHDVKERVDRIRVTHYSAHGEDVVIDVVYRHNGTNERANIVVHIHNGRMVQMKVQQS” to “DESEQASEVAHEMRHLYRKNDEDRFRELMDENVRARVGDKEYHGREDVLRMFQHEMRTADHMDVQVNDFRKEGDSIIIHADLKYVSNGNDRTRRLVFVLEVNGDTITLLQQQDQ”, the protease stability score falls from 0.944 to 0.096.

Going from “DESHARHLQRVFEKNDWQRLVELADEDVRIQIGNYDYHGRTAAQQMFEKLSKQIDHMEVKSMRVQGNKLQFDFEVNFNGKRNQAHFEMHFSNGRIKKIRFQFRDEEHEKDFDRHFS” to “DESIMNMMHQLIDAMETNDPEKMKRLADKDATFVYGDKTVHGRHQAEEWIHKVKKHQRFRIDLRDVKADNGRVTVNAQIDQNHNGQPSQRTVDAKAEVSNGRVKHASVRRTS”, the protease stability score falls from 1.46 to -0.117.

Compared with “DESITEFASHWKEVLEHGDFRRMADNVDEDVKVRIGDKEIHGRTRYRRRAKKQEDEISFRLQDLHVEVQGDHIVAKFQATVKINGQPNTFTVNVVMRVHNGRIKYMEQQFSEEDEDKLTQ”, “DESKEAHTLAKKYVELVKKGDQEKMKTMFDPNAKAHIGDKTYHGMTDFVETLVEQAKRVDHQSVDVKSVEVDGDHIDVEVTVKYTYNGQNRSNVERFIVRNHNGKWRVKEWHDK” is lower in protease stability score: 0.534 for the first, -0.145 for the second.

First: DESKKAKKFMEEYKRAIETGDEDTAKNLADKDARVKVGDTTYTGMDHIRERVVTEAKQVDHITFEVKEMQTRPGRLKVRMDVIFDHDGRKDRKEVVLVFKDNNGKVLLLSASYQ
Second: DESKQKQFEHFLEVVKTGNEEDLRKNMDKDVRVQIGDKQVHGRENIASELVRRQKEIKLHIRDMRIDVHNGRVQASVDVVDNINGKPTRYSYRFEYNIENGKLKSARIHIDPDQVRKVEE
The protease stability score of the first is lower: -0.041 for the first, 1.03 for the second.

Compared with “DESKQRTFAEELLTAWETGNDDQARKLADPNVRFHIGDKEISGRENFAKWAKEVRDRVDHIRYEHIEIRGEKVRVNVQLEFDGKTERRVIVFNVHDGQVKSMDVKTT”, “DESKVNEIVQKFVNAVREGNENHLRSLMDKDVTLHVGDRTWHGREQVASFMAHVAKRVDRIRIVHIEIHGDKANVNVRFDVNGTEVQLTMDIRIKNGRIMKIHMSPEDEKKLQG” is higher in protease stability score: 1.34 for the first, 1.76 for the second.

Going from “DESLADVFRRLLEAYRNGDEQKLRDNVDPNAKFNIGDKRFSGREQFARDMHKERKEIRVSIQLHEYDNQGEDVDFTFQFSAEVNGEPVHDTVRVEVHAHNGKIKRVHMHMSEKFQHQLRG” to “DESLAEQWMRDIKSNNEERFRRYVDPNVHADVGNFKVHGRHDLVEQLRKLLEQVDHLDYHSVSADGDDVTVDVVIDVNGNTVRYELIVRFHNGQAHSLQMHVTNPDQDRQLHEVVK”, the protease stability score rises from -0.027 to -0.013.

Going from “DESLEDMARQLNTALQTNNPESVKEMFDKNARLEVGDKTWKGREHIDQWANRLRDEIRYEVRRFDLRVHGDKIEVNVHEEIQINGRPKSVSYSYTMRAHNGRIKHARYQPDPDAERRKKK” to “DESLEERLDTLRKVEEQGDEDTAREQADPNVKIVVGDRRVHGMDEQLEELRRRVKEARVTIESLSVDAHGDKVDVKVRLTFTIDGRPASVNLHQHYQLQNGKFKHVEARFSEEDRDELQT”, the protease stability score rises from 0.031 to 0.846.

Going from “DESLHRWYERLQEALEHGDEDRLRKNADKDVQVDVGDKRVHGSEHYAHELVRESREMDFHIHRMEVSVTGNRITVDYVYDREHNGTPQSKRVQERYQAHNGKLKRASVQETD” to “DESLMKVAQEVHDAWNQGDPTKLQENFDKDAEIQVGDKQIHGREDATRELDRKKKQQRFEVQVTSMTAQNGDVKVDARFHFKHNGRPDERRFKLTINAENGRIQEASIDQTK”, the protease stability score falls from -0.093 to -0.151.

First: DESLQHMAEEMLEVWQTGDKERAATMMDKDARVRVGDHTVRGRESLQKNIETEKEQMRVQIRHVDARVHNGRVDVKVEVELDHNGKPQRVVYNIDFRAHNGRVQEIHIQEDG
Second: DESLRKLLERIWRALTSGDPDELRKLADEDAKFQIGDKRINGMNEAAERWATRVRQLRVRIEDVKQHVEGDKVEAHLDVVREKNGQPQKHEEHVRMRAEGDRAKELVIQISQ
The protease stability score of the first is lower: -0.181 for the first, 0.031 for the second.

First: DESLRSKAEEFLKAIEHGDPDEASRQLDPNARFEIGDKEITGRETFDRTMHETRNQMRLEVKSYDARASNGRVHMEVRFQATHNGQPQDNREVQDFQFSNGRIERVSVEKDS
Second: DESLVEILKKLAKAFNENDPDHLVKLFDEDARLDYGDTSVHGREQIKRLMEDWKRRMTVKIRVNHIDVKNGRAQMKADLTIRHNGKPDTNKVEVELHAHNGRNKEVVFERTK
The protease stability score of the first is lower: -0.463 for the first, 0.279 for the second.
